Test results published in publication doi:10.1101/2024.06.21.600001 (bioRxiv, 2024).

Legend:
Experiment in all cases: immunostaining of cells or tissue
Conditions in all cases: one partner purified
[1] = target: T1, Zaire ebolavirus glycoprotein (EBOV GP), full-length transmembrane, Mayinga (Zaire ebolavirus (EBOV), Mayinga, UniProt Q05320)
T1 construct: source: MDCK SIAT-1 cells expressing EBOV GP, on the cell surface

[2] = target: Tai Forest ebolavirus glycoprotein (TAFV GP) (Tai Forest ebolavirus (TAFV), UniProt Q66810)
[3] = target: T2, Bundibugyo ebolavirus glycoprotein (BDBV GP), full-length transmembrane (Bundibugyo ebolavirus (YP_003815435.1), UniProt B8XCN0)
T2 construct: source: MDCK SIAT-1 cells expressing BDBV GP, on the cell surface

[4] = target: Reston ebolavirus glycoprotein (RESTV GP) (Reston ebolavirus, isolate ; …, UniProt Q66799)
[5] = target: T3, Sudan ebolavirus glycoprotein (SUDV GP), full-length transmembrane (Sudan ebolavirus (SUDV), UniProt Q7T9D9)
T3 construct: source: MDCK SIAT-1 cells expressing SUDV GP, on the cell surface

Measured: binding result

B1: mAb 11886, recombinant rabbit IgG (antibody, V domains shown)
VH: QSVEESGGRLVTPGTPLTLTCIVSGFSLSNYYMSWVRQVPGKGLEWIGVIGWSGTSSYASWAKGRFTISKTASTTVDLKITSPTTEDTATYFCARVLYIGGGFNYYDAFDPWGPGTLVTVS
VL: DVVMTQTPASVSEPVGGTVTIKCQASQSIGSNLAWYQQKPGQPPKLLIYAASTLASGVPSRFKGSGSGTEFTLTISDLECADAATYYCQCTYYDSSYVYNNFGGGTEVVVK
notes: source: HEK293F, transfected, purified (Protein A); copies: 2 + 2
binds: [1] | [2] | [3] | [4] | [5]

B2: mAb 11883, recombinant rabbit IgG (antibody, V domains shown)
VH: QEQLVESGGGLVQPEGSLTLTCTASGFSFSSNCWRCWVRQAPGKGLEWIACVCAGRSGGTTYYASWAKGRFTISKTSSPTVTLQMTSLTAADTATYFCARAGYDDYGDASFFNLWGPGTLVTVS
VL: AVVLTQTASPVSTPVGGTVTIKCQASQNIYSNLAWYQQKPGQPPKLLIYSASTLASGVPSRFKGSGSGTEYTLTISDLECADAATYYCQRYYYLSGSADNTFGGGTEVVVK
notes: as for B1
binds: [1] | [2] | [3] | [4] | [5]
